Test results taken from IntAct's records for PubMed 10677492.

B1: Dolichyl-diphosphooligosaccharide--protein glycosyltransferase subunit OST4 (Saccharomyces cerevisiae), Q99380 (parent)
chain: MISDEQLNSLAITFGIVMMTLIVIYHAVDSTMSPKN
partner: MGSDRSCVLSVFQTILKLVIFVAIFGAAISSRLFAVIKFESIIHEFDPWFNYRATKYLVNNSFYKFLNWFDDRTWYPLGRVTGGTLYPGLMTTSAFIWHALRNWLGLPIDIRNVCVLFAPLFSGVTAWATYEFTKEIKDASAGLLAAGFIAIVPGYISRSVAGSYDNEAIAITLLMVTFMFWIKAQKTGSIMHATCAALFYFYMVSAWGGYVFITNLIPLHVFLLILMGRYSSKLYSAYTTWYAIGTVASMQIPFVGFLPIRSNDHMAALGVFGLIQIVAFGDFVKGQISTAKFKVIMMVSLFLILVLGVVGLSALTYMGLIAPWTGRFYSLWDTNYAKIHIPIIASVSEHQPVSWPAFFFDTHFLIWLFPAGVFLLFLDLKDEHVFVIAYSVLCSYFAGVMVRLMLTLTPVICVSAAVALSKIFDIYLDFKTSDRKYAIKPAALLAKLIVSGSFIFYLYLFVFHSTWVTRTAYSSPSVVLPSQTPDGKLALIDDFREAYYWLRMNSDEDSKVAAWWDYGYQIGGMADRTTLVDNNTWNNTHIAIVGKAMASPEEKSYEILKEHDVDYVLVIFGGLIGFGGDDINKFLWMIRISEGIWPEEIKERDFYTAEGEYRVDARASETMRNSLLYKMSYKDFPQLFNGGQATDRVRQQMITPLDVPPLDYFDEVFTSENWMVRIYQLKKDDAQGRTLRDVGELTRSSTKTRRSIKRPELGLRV
B2: Dolichyl-diphosphooligosaccharide--protein glycosyltransferase subunit OST4 (Saccharomyces cerevisiae), Q99380 (parent)
chain: B1 chain
partner: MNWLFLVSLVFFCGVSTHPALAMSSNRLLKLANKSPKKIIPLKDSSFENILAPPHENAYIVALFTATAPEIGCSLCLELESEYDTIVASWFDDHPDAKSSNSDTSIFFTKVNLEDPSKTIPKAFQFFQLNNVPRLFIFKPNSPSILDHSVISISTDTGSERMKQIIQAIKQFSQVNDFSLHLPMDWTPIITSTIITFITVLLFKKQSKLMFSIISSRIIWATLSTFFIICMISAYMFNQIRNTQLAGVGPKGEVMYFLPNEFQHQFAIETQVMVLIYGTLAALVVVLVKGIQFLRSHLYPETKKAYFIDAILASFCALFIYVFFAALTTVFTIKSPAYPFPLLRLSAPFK

Variants of: B1
Details: with stt3_yeast STT3, P39007

effect of a mutation on the interaction	Variant
disrupting interaction	M18K
disrupting interaction	I24K
disrupting interaction	L21K

Variants of: B2
Details: with ost3_yeast OST3, P48439

Variant	effect of a mutation on the interaction
M18K	disrupting interaction
M19K	disrupting interaction

The remaining lines, values ahead:

effect of a mutation on the interaction	Variant
disrupting interaction	L21K
disrupting interaction	V23K
disrupting interaction	T20K
disrupting interaction	I24K
